We go through 1 molecule from article PMC3871816, “The Arabidopsis adaptor protein AP-3µ interacts with the G-protein β subunit AGB1 and is involved in abscisic acid regulation of germination and post-germination development” (Journal of Experimental Botany, 2013).

In this assay the target is T1, GST-fused AP-3µ (Arabidopsis thaliana, UniProt F4I562 1-415).
T1 construct: AP-3µ of Arabidopsis thaliana; construction is in Supplementary Method S2, induction and purification in Supplementary Method S3; also called GST-AP-3µ; pGEX-5X-AP-3µ
T1 sequence (looked up): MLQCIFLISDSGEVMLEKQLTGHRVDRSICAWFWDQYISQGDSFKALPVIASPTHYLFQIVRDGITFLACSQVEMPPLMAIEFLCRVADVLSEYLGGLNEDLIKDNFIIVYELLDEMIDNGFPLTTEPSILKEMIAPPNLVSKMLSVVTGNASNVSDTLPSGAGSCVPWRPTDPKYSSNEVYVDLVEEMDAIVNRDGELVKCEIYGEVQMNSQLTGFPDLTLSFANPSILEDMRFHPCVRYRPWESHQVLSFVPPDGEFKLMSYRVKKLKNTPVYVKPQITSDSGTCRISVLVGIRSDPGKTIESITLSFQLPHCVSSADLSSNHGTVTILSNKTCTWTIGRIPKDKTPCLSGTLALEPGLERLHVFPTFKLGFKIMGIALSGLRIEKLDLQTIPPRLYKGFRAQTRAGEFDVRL
In words: pull-down; GST-AP-3µ or GST-AP-3µ^DN bound to Glutathione Sepharose 4 Fast Flow, washed with PBS, incubated with purified His-AGB1 at room temperature for 60 min; eluted with 20 mM reduced glutathione; immunoblot with anti-GST and HisProbe-HRP. The following applies: both partners purified. In general terms: A western blot detects proteins with antibodies after separation by electrophoresis.

B1: Polyhistidine-tagged AGB1 (natural protein, Arabidopsis thaliana, UniProt P49177 1-377, looked up)
chain: MSVSELKERHAVATETVNNLRDQLRQRRLQLLDTDVARYSAAQGRTRVSFGATDLVCCRTLQGHTGKVYSLDWTPERNRIVSASQDGRLIVWNALTSQKTHAIKLPCAWVMTCAFSPNGQSVACGGLDSVCSIFSLSSTADKDGTVPVSRMLTGHRGYVSCCQYVPNEDAHLITSSGDQTCILWDVTTGLKTSVFGGEFQSGHTADVLSVSISGSNPNWFISGSCDSTARLWDTRAASRAVRTFHGHEGDVNTVKFFPDGYRFGTGSDDGTCRLYDIRTGHQLQVYQPHGDGENGPVTSIAFSVSGRLLFAGYASNNTCYVWDTLLGEVVLDLGLQQDSHRNRISCLGLSADGSALCTGSWDSNLKIWAFGGHRRVI
notes: AGB1, G-protein β subunit of Arabidopsis thaliana; His-AGG1 is named in the same sentence but in no result; also called His-AGB1; His-tagged AGB1; source: E. coli, purified
Regarding B1, the binding result is listed as “binds”.
